# Test results reported in article PMC5770569.
# Tests used:
# [1] = target: Purified recombinant EGFL7 (Sino Biological Inc.) (human) (UniProt Q9UHF1); assay: SPR
# [2] = target: E7p72, re-synthesized with a Cys for the SPR chip; assay: SPR
# [3] = target: E7p74, re-synthesized with a Cys for the SPR chip; assay: SPR
# [4] = target: Fluorescein-labeled E7p72; assay: flow cytometry on cells
# A647-CPMV-PEG viral nanoparticle (control), sequence (P03599 460-833 limits assumed): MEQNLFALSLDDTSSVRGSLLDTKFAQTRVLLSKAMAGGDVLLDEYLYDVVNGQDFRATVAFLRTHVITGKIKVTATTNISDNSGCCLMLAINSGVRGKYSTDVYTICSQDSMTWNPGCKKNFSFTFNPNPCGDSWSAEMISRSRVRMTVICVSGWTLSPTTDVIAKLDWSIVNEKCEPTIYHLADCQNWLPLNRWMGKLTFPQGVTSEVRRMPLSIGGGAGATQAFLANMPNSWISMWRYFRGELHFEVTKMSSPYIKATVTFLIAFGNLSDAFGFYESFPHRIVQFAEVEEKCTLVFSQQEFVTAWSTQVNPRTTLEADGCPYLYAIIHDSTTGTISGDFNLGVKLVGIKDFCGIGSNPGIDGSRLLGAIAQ
# A647-CPMV-PEG viral nanoparticle (control), sequence (P03599 834-1022 limits assumed): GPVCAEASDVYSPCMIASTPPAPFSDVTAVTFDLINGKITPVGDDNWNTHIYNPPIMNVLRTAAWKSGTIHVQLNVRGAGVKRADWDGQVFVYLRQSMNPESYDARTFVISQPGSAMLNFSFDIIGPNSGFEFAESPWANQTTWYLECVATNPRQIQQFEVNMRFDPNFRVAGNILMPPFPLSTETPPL
Molecule,koff [1],Kd [2],Kd [3],percent decrease in the uptake of FITC-E7p72 by EA.hy926 cells with 3x EGFL7 [4]
A647-CPMV-PEG viral nanoparticle (control),0.00124 s⁻¹,,,
Purified EGFL7 (SPRimager II experiments and blocking study) (natural protein) YRPGRRVCAVRAHGDPVSESFVQRVYQPFLTTCDGHRACSTYRTIYRTAYRRSPGLAPARPRYACCPGWKRTSGLPGACGAAICQPPCRNGGSCVQPGRCRCPAGWRGDTCQSDVDECSARRGGCPQRCVNTAGSYWCQCWEGHSLSADGTLCVPKGGPPRVAPNPTGVDSAMKEEVQRLQSRVDLLEEKLQLVLAPLHSLASQALEHGLPDPGSLLVHSFQQLGRIDSLSEQISFLEEQLGSCSCKKDS,,13.2 nM,14.3 nM,64.5%
